The text below walks through data of the RNAGym collection of RNA variant scans (doi:10.1073/pnas.2313332121).

The chains are these.
B1: TPR 5TU (parent)
chain: GGAUCUUCUCGAUCUAACAAAAAAGACAAAUCUGCCACAAAGCUUGAGAGCAUCUUCGGAUGCAGAGGCGGCAGCCUUCGGUGGCGCGAUAGCGCCAACGUUCUCAACUAUGACACGCAAAACGCGUGCUCCGUUGAAUGGAGUUUAUCAUG

Variants at the floor of the assay were thinned out. A value given as a limit tells only on which side of the number the result lay.

The variants in this data set derive from B1. The data set is described as follows: polymerase ribozyme fitness, log enrichment relative to wild type (log ratio); higher = more active; in vitro selection for triplet polymerase activity. In short, it runs like this:
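For each subunit of a heterodimeric triplet polymerase ribozyme, a mutant library was built by PCR and transcribed, then taken through a single in vitro selection round in triplicate. Selection involved annealing to a biotinylated primer, the partner subunit and triplets, incubation frozen at −7 °C, gel excision of extended constructs, capture on streptavidin beads and RT-PCR. Genotypes were retained after Illumina sequencing of inputs and outputs only with ≥10 input reads and ≥1 read in each output. Fitness is defined as the logarithm of a genotype's enrichment relative to wild-type enrichment, using inverse-variance-weighted averages across replicates, with the logarithm taken to base 2.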
Consider C32G C54A C75U U77A C85U A106G U135C, for which the “polymerase ribozyme fitness (log ratio)” value was no more than -4.2. Turning to A26G G48A, the “polymerase ribozyme fitness (log ratio)” value is no more than -4.2.

A21U A113U A137G U144A: the “polymerase ribozyme fitness (log ratio)” value is -3.99. Then A52U A89G, with -3.14; and C8G G42C G50C A91C C93A, with no more than -4.2. The same measure for C57A A113C A119U: -1.37. For A52G G84U, the “polymerase ribozyme fitness (log ratio)” value is -1.32.

With C85A C114U G143A, the “polymerase ribozyme fitness (log ratio)” value was no more than -4.2. Then A19C U109G, with -0.641; and U44A U104A A115G, with no more than -4.2; and C85A U148A, with -3.51.

Consider C51G C79G C96G, for which the “polymerase ribozyme fitness (log ratio)” value is no more than -4.2. The same measure for A21C C95U C129A: -2.89; for C69A A73C G84U U109C C118A: no more than -4.2; for C14A U44A G81A C85A U102G: no more than -4.2.

C35A U144G U151A: the “polymerase ribozyme fitness (log ratio)” value was no more than -4.2.

Regarding U139C U144A, the “polymerase ribozyme fitness (log ratio)” value was -3.36.

For the variant C32A G58C A64U C85G, the “polymerase ribozyme fitness (log ratio)” value is no more than -4.2.

Turning to G59A C76G C93G, the “polymerase ribozyme fitness (log ratio)” value is no more than -4.2. The same measure for A39C G59U C76G U146G: no more than -4.2; for A49U C57A G81A A98C U148G: no more than -4.2.

Consider A30C G50C A66G G128U, for which the “polymerase ribozyme fitness (log ratio)” value was no more than -4.2.

Take C57U G83C: the “polymerase ribozyme fitness (log ratio)” value is -0.999. Then G25C A52C U56A C85U G124C, with no more than -4.2; and U78G U127C, with no more than -4.2. Turning to C96U G126U A137C A138G, the “polymerase ribozyme fitness (log ratio)” value was no more than -4.2. The same measure for U45A C63U A121C: -3.18; for C85A A137G: -2.96; for A20G G80A U82G C95U: -1.15.

On to C85U G133C, for which the “polymerase ribozyme fitness (log ratio)” value was -1.69. Consider A37G C95G C114U A119U A120G, for which the “polymerase ribozyme fitness (log ratio)” value was no more than -4.2.

On to C5G C8U A28C U33A U44A C85U U90A U139C, for which the “polymerase ribozyme fitness (log ratio)” value is no more than -4.2.

For A28G C54U C93A U127A, the “polymerase ribozyme fitness (log ratio)” value was no more than -4.2. Then A60G G67U C93U C99U C129U, with no more than -4.2; and A3G C93U, with -1.78.

For C93A A142U C149A, the “polymerase ribozyme fitness (log ratio)” value is no more than -4.2. Then U55A C72U G83A, with -0.82. Then A21C U134A, with -1.79; and A22C C27U G50C G80U U144G, with no more than -4.2; and U53A U56A G70U C93U G141C, with no more than -4.2. Then G81C C132G, with -3.75; and A23U C125A, with -3.51. For the variant A17G G50A U55G A89U C93A, the “polymerase ribozyme fitness (log ratio)” value was no more than -4.2.

Take G50C C93G U104C: the “polymerase ribozyme fitness (log ratio)” value is no more than -4.2. Then C14A U55A, with -1.9; and U6A C51U A52U U56A G83U G84A C114U, with no more than -4.2; and A66C C69U C96U, with no more than -4.2.

Take U104C: the “polymerase ribozyme fitness (log ratio)” value is 0.352.

U31C U33C G50U C76U G83C: the “polymerase ribozyme fitness (log ratio)” value is no more than -4.2.

With G88A C149U, the “polymerase ribozyme fitness (log ratio)” value was -4.04. The same measure for C108U A147C: -3.44; for A23C A29C U31G U33C C95U C96U A107U U127C A138C: no more than -4.2. Then U9C U53A G58U A60C A66C A147C, with no more than -4.2; and A52G G62A C85U, with -1.4; and A49G A52G G68U C69G G100C, with no more than -4.2. As to G46A C99U G141A, the “polymerase ribozyme fitness (log ratio)” value was no more than -4.2. Then C43A A49U G74A G86C C93A C105U U144A, with no more than -4.2; and G48C U55A A107U U111G, with no more than -4.2; and G74A U82G G94U G136A, with no more than -4.2. Turning to A23U A30G U45A A97G G100U, the “polymerase ribozyme fitness (log ratio)” value was -4.19. G48U C75G G92U: the “polymerase ribozyme fitness (log ratio)” value was no more than -4.2. Regarding U55A G94C U148G, the “polymerase ribozyme fitness (log ratio)” value is no more than -4.2. Take G50C C76A G83U C103A C132G U145G: the “polymerase ribozyme fitness (log ratio)” value was no more than -4.2. The same measure for A12C C18G A40U C123U G136U: -3.09; for A12U C27U A73U C96G A97U A107G: no more than -4.2; for C5A A19U G86C A147C: -3.38. Turning to C35G U55G C85G U144A, the “polymerase ribozyme fitness (log ratio)” value was no more than -4.2.

Take A52U C54U G92A A98G A120G U139C U144C U151A: the “polymerase ribozyme fitness (log ratio)” value is no more than -4.2. Then A12U C63A U78G C95U, with no more than -4.2. As to A22C A49C G84C G94U, the “polymerase ribozyme fitness (log ratio)” value was no more than -4.2. Consider A37U, for which the “polymerase ribozyme fitness (log ratio)” value is -1.11. Then C5U A16C C51U, with -1.73. For the variant U56A G92U U102A U134C, the “polymerase ribozyme fitness (log ratio)” value is -1.59. In the case of G59C G84A, the “polymerase ribozyme fitness (log ratio)” value is -0.218. Consider A60U G80A C85A C93A, for which the “polymerase ribozyme fitness (log ratio)” value is no more than -4.2. The same measure for G68C U78C C96A A98G G143A: no more than -4.2. The same measure for C18U C93U G133U: no more than -4.2; for G62A A98U: -1.42; for C32U C118U G133C: -2.99.

For the variant A3G A26U C72U, the “polymerase ribozyme fitness (log ratio)” value was no more than -4.2. As for G58C C87U U135A, the “polymerase ribozyme fitness (log ratio)” value was -2.15. Then U45A A73U, with no more than -4.2. Then U90G G124C, with no more than -4.2; and G59C U127G U130C, with no more than -4.2.
